Assay results as given in article PMC6505963.

Target: GST-BLM RQC loopΔ10 (human) (UniProt P54132)
Test: EMSA
Conditions: 5 uM protein, FP: 10 mM Tris-HCl pH 7.5, 25 mM NaCl, 1 mM DTT, 100 pM DNA, 25 C, EMSA: 10 mM Tris-HCl pH 8.0, 2 mM DTT, 1 mM EDTA, 20% glycerol, 0.2 uM DNA, 4 C, 30 min

Sequence of GST-BLM RQC loopΔ10 (human) (P54132 1068-1209, stated change not applied): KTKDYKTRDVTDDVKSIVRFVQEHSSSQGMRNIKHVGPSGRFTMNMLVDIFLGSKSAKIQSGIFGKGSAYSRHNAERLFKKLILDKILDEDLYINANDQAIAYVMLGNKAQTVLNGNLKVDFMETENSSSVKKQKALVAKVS

Work on “CTAGAACAGCATGTCCTAGCAAGCCAGAATTC / GAATTCTGGCTTGCTAGGACATCTTTGCCCAC / GTGGGCAAAGATGTCCTAGCAATGTAATCGTC / GACGATTACATTGCTAGGACATGCTGTTCTAG [Holliday junction (HJ)]” yielded a binding signal (% loss of binding vs wild type) of 50.
